According to US20260209363A1 (Chugai, published 2026):
Each block holds one binder with its values, some of them ahead of it.

Legend:
[1] = target: T1, His-tagged mouse MOG (8536-MO, R&D Systems) (mouse, UniProt Q61885 29-156, limits assumed); assay: Gyrolab xP immunoassay of antibody-antigen complex in C57BL/6J mouse plasma (albumin present), 2 nM antibody, 9 nM His-tagged mouse MOG
T1 construct: Bought; also called mouse soluble MOG; not shown: His tag
T1 sequence (looked up): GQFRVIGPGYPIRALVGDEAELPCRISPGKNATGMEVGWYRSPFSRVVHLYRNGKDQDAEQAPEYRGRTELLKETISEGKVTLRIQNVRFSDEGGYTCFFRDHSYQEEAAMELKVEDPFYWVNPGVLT
Protocol: First, to bind the albumin-binding domain to albumin in plasma, each of the anti-mouse MOG antibodies mentioned above were diluted to 8 nM using C57BL/6J mouse plasma, and then incubated at room temperature for 40 minutes. Next, for binding of the anti-mouse MOG antibody to the target antigen, one equivalent of His-tagged mouse MOG (8536-MO, R&D Systems) diluted to 38 nM in mouse plasma was added to the antibody solutions, and then the solutions were incubated at room temperature for 1 hour 25 minutes.
To detect the antibody-antigen complexes, first, the anti-delta GK antibody (AF647-anti-delta GK) was labeled using an Alexa flour 647 labeling kit (A20186, Thermo Fisher Scientific) according to the attached protocols. […] (the final concentrations were 2 nM for the antibody, 9 nM for His-tagged mouse MOG, and 67 nM for AF647-anti-delta GK).
Measurement of antigen-antibody complexes were performed using Gyrolab xP. For the measurements using Gyrolab xP, Gyrolab Bioaffy 200 (P0004180, Gyros Protein Technologies) was used as the measurement disc. Biotinylated anti-His-tagged antibody (BAM050, R&D Systems) diluted to 10 micro g/mL with PBS 0.05% Tween 20 was added to the measurement disc, and then solid-phased on the reaction layer in the disc. A mixed solution of the labeled anti-delta GK antibody, anti-mouse MOG antibody (albumin switch molecule), and mouse MOG, incubated as described above, was added to the disc, and the anti-mouse MOG antibody-mouse MOG-AF647-anti-delta GK complex was captured by the solid-phased antibody. The amount of the captured complex was detected by the fluorescence signal of AF647 (Detect PMT 25%). The fluorescence signal of AF647 was analyzed by Gyro Evaluator (version 3.6.2.30, Gyros Protein Technologies).

[2] = target: T2, Mouse MOG (R&D system) (mouse, UniProt Q61885 29-156, limits assumed); assay: SPR (Biacore T200), antibody captured by anti-human Fc antibody, mouse MOG as analyte, 25 degrees C, no albumin
T2 construct: also called mouse soluble MOG; soluble MOG
T2 sequence (looked up): T1 sequence (looked up)
Protocol: Binding activities of the antibodies produced in Example 10 against mouse MOG were assessed using Biacore T200 (Cytiva).
As the running buffer, 50 mM Na Phosphate (pH 7.4), 150 mM NaCl, 0.05% Tween 20, and 0.005% NaN₃ was used, and the assessment was performed at 25 degrees C. First, anti-human Fc antibody (Cytiva) was used as a ligand-capturing molecule. Anti-human Fc antibody (Cytiva) was solid-phased on a Series S Sensor Chip CM4 (Cytiva) using an Amine Coupling Kit (Cytiva). Antibody solutions prepared using the running buffer was allowed to interact with this CM4 sensor chip to capture approximately 480 RU of the antibody. Mouse MOG (R&D system) was diluted to 0, 10, 40, 160, and 640 nM with the running buffer, and then bound to the captured antibody. The chip was regenerated using 3 M MgCl₂, and measurements were performed by repeatedly capturing antibodies. Dissociation constant (KD) of the respective antibodies for mouse MOG was calculated using Biacore T200 Evaluation Software 2.0. Specifically, the association rate constant ka (L/mol/s) and the dissociation rate constant kd (1/s) were calculated by global fitting of the sensorgrams obtained by measurement with the 1:1 Langmuir binding model, and the dissociation constant KD (mol/L) was calculated from these values.

decrease in the signal derived from the complex, compared to MOG//IC17 [1]: 90% | Kd [2]: 1.91 nM | koff [2]: 1.39e-05 s⁻¹ | kon [2]: 7260 M⁻¹ s⁻¹
B1: ABD094(H/L)-MOG//IC17 (bispecific antibody, human IgG1, kappa)
heavy 1: LAEAKEAANAELDSYGVSDFYKRLIDKAKTVEGVEALKDAILAALPRVTLRESGPTLVKPTQTLTLTCTFSGFSLSTSGVGVGWIRQPPGKALEWLALIFWDDDSHYSPSLKSRLTITKDTSKNQVVLTMTNMDPVDTATYYCARYYFGSGSYFPSYWYFDLWGRGTLVTVSSASTKGPSVFPLAPSSKSTSGGTAALGCLVEDYFPEPVTVSWNSGALTSGVHTFPAVLQSSGLYSLSSVVTVPSSSLGTQTYICNVNHKPSNTKVDERVEPKSCDKTHTCPPCPAPELRRGPSVFLFPPKPKDTLMISRTPEVTCVVVDVSHEDPEVKFNWYVDGVEVHNAKTKPREEQYNSTYRVVSVLTVLHQDWLNGKEYKCKVSNKALPAPIEKTISKAKGQPREPQVCTLPPSREEMTKNQVSLSCAVKGFYPSDIAVEWESNGQPENNYKTTPPVLDSDGSFFLVSKLTVDKSRWQQGNVFSCSVMHEALHNHYTQKSLSLSP
light 1: not shown
heavy 2: not shown
light 2: QVQLQQSGPQLVRPGASVKISCKASGYSFTSYWMHWVNQRPGQGLEWIGMIDPSYSETRLNQKFKDKATLTVDKSSSTAYMQLSSPTSEDSAVYYCALYGNYFDYWGQGTTLTVSSASVAAPSVFIFPPSDEQLKSGTASVVCLLNNFYPREAKVQWKVDNALQSGNSQESVTEQDSKDSTYSLSSTLTLSKADYEKHKVYACEVTHQGLSSPVTKSFNRGEC
notes: also called ABD094(H/L)-MOG307//IC17; anti-MOG albumin switch molecule

decrease in the signal derived from the complex, compared to MOG//IC17 [1]: 79% | Kd [2]: 0.0607 nM | koff [2]: 3.46e-07 s⁻¹ | kon [2]: 5700 M⁻¹ s⁻¹
B2: ABD094(H/L).N02-MOG//IC17 (bispecific antibody, human IgG1, kappa)
heavy 1: LAEAKEAANAELDSYGVSDFYKRLIDKAKTVEGVEALKDAILAALPGGGGSRVTLRESGPTLVKPTQTLTLTCTFSGFSLSTSGVGVGWIRQPPGKALEWLALIFWDDDSHYSPSLKSRLTITKDTSKNQVVLTMTNMDPVDTATYYCARYYFGSGSYFPSYWYFDLWGRGTLVTVSSASTKGPSVFPLAPSSKSTSGGTAALGCLVEDYFPEPVTVSWNSGALTSGVHTFPAVLQSSGLYSLSSVVTVPSSSLGTQTYICNVNHKPSNTKVDERVEPKSCDKTHTCPPCPAPELRRGPSVFLFPPKPKDTLMISRTPEVTCVVVDVSHEDPEVKFNWYVDGVEVHNAKTKPREEQYNSTYRVVSVLTVLHQDWLNGKEYKCKVSNKALPAPIEKTISKAKGQPREPQVCTLPPSREEMTKNQVSLSCAVKGFYPSDIAVEWESNGQPENNYKTTPPVLDSDGSFFLVSKLTVDKSRWQQGNVFSCSVMHEALHNHYTQKSLSLSP
light 1: not shown
heavy 2: not shown
light 2: B1 light 2
notes: ABD094 linked via N02 linker at VH and VL N-termini of the MOG arm; also called ABD094.N02(H/L)-MOG//IC17

decrease in the signal derived from the complex, compared to MOG//IC17 [1]: 83% | Kd [2]: 5.53 nM | koff [2]: 9.46e-06 s⁻¹ | kon [2]: 1710 M⁻¹ s⁻¹
B3: ABD094(H/L).N10-MOG//IC17 (bispecific antibody, human IgG1, kappa)
heavy 1: LAEAKEAANAELDSYGVSDFYKRLIDKAKTVEGVEALKDAILAALPGRVTLRESGPTLVKPTQTLTLTCTFSGFSLSTSGVGVGWIRQPPGKALEWLALIFWDDDSHYSPSLKSRLTITKDTSKNQVVLTMTNMDPVDTATYYCARYYFGSGSYFPSYWYFDLWGRGTLVTVSSASTKGPSVFPLAPSSKSTSGGTAALGCLVEDYFPEPVTVSWNSGALTSGVHTFPAVLQSSGLYSLSSVVTVPSSSLGTQTYICNVNHKPSNTKVDERVEPKSCDKTHTCPPCPAPELRRGPSVFLFPPKPKDTLMISRTPEVTCVVVDVSHEDPEVKFNWYVDGVEVHNAKTKPREEQYNSTYRVVSVLTVLHQDWLNGKEYKCKVSNKALPAPIEKTISKAKGQPREPQVCTLPPSREEMTKNQVSLSCAVKGFYPSDIAVEWESNGQPENNYKTTPPVLDSDGSFFLVSKLTVDKSRWQQGNVFSCSVMHEALHNHYTQKSLSLSP
light 1: not shown
heavy 2: not shown
light 2: B1 light 2
notes: ABD094 linked via N10 linker (G) at VH and VL N-termini of the MOG arm; also called ABD094.N10(H/L)-MOG//IC17; ABD094(H/L).N10-MOG307//IC17
